Laboratory results reported in IntAct's records for PubMed 18423202.

B1: Regulator of nonsense transcripts 1 (Homo sapiens), Q92900-2 (parent)
chain: MSVEAYGPSSQTLTFLDTEEAELLGADTQGSEFEFTDFTLPSQTQTPPGGPGGPGGGGAGGPGGAGAGAAAGQLDAQVGPEGILQNGAVDDSVAKTSQLLAELNFEEDEEDTYYTKDLPIHACSYCGIHDPACVVYCNTSKKWFCNGRGNTSGSHIVNHLVRAKCKEVTLHKDGPLGETVLECYNCGCRNVFLLGFIPAKADSVVVLLCRQPCASQSSLKDINWDSSQWQPLIQDRCFLSWLVKIPSEQEQLRARQITAQQINKLEELWKENPSATLEDLEKPGVDEEPQHVLLRYEDAYQYQNIFGPLVKLEADYDKKLKESQTQDNITVRWDLGLNKKRIAYFTLPKTDSDMRLMQGDEICLRYKGDLAPLWKGIGHVIKVPDNYGDEIAIELRSSVGAPVEVTHNFQVDFVWKSTSFDRMQSALKTFAVDETSVSGYIYHKLLGHEVEDVIIKCQLPKRFTAQGLPDLNHSQVYAVKTVLQRPLSLIQGPPGTGKTVTSATIVYHLARQGNGPVLVCAPSNIAVDQLTEKIHQTGLKVVRLCAKSREAIDSPVSFLALHNQIRNMDSMPELQKLQQLKDETGELSSADEKRYRALKRTAERELLMNADVICCTCVGAGDPRLAKMQFRSILIDESTQATEPECMVPVVLGAKQLILVGDHCQLGPVVMCKKAAKAGLSQSLFERLVVLGIRPIRLQVQYRMHPALSAFPSNIFYEGSLQNGVTAADRVKKGFDFQWPQPDKPMFFYVTQGQEEIASSGTSYLNRTEAANVEKITTKLLKAGAKPDQIGIITPYEGQRSYLVQYMQFSGSLHTKLYQEVEIASVDAFQGREKDFIILSCVRANEHQGIGFLNDPRRLNVALTRARYGVIIVGNPKALSKQPLWNHLLNYYKEQKVLVEGPLNNLRESLMQFSKPRKLVNTINPGARFMTTAMYDAREAIIPGSVYDRSSQGRPSSMYFQTHDQIGMISAGPSHVAAMNIPIPFNLVMPPMPPPGYFGQANGPAAGRGTPKGKTGRGGRQKNRFGLPGPSQTNLPNSQASQDVASQPFSQGALTQGYISMSQPSQMSQPGLSQPELSQDSYLGDEFKSQIDVALSQDSTYQGERAYQHGGVTGLSQY

Variants of: B1
Conditions: with eif3a_human EIF3A

Variant | effect of a mutation on the interaction
G495R;G497E | increasing interaction

Variants of: B1
Conditions: with eif3a_human EIF3A
Remark: another data set of the same source

Variant | effect of a mutation on the interaction
G495R;G497E | increasing interaction
